In US5679770A, “Polypeptide, DNA fragment encoding the same, drug composition containing the same and process for producing the same” (Mochida Pharmaceutical Co., Ltd., priority 1991, dated 1997):

Biological target: T1, human FXa (Homo sapiens, UniProt P00742)
T1 construct: purchased American Diagnostica Inc
Experiment: FXa-inhibiting activity (synthetic substrate S-2222)
Type: biochemical
Conditions: relative to control AN68; concentration expressed as bovine trypsin-inhibiting activity
Method: The purified polypeptide of the present invention was dissolved in 100 μl of distilled water. Polypeptide concentration of this solution was determined based on its bovine trypsin-inhibiting activity measured in accordance with the above procedure (1) using the aforementioned UTI as a standard. The thus prepared solution was then diluted to various concentration levels with 0.1% BSA/150 mM NaCl/5 mM CaCl2 /50 mM Tris-HCl buffer (pH 8.3) for use in the activity measurement. Separately from this, a polypeptide TN70 (cf. Japanese Patent Application No. 3-325220) and polypeptide AN68 were purified respectively in accordance with the procedure of Example 2(4) from a culture supernatant of E. coli JE5505(pM552) (deposit No., FERM BP-3561) and E. coli JE5505(pM594) obtained by transforming E. coli JE5505 with the aforementioned plasmid pM594 obtained in Example 4. The thus purified polypeptide TN70 and AN68 were diluted to various concentration levels to be used as control solutions.
Using a synthetic compound S-2222 (Daiichi Pure Chemicals Co., Ltd.) as a substrate, FXa-inhibiting activities in the thus prepared test sample solution and control solution were measured in accordance with the method of Ohno et al. (Ohno H. et al., Thromb. Res., vol.19, pp.579-588, 1980) as follows. First, human FXa (American Diagnostica Inc.) was dissolved in distilled water to a final concentration of 10 PEU/ml and the solution was further diluted with the aforementioned 0.1% BSA/150 mM NaCl/5 mM CaCl2 /50 mM Tris-HCl buffer (pH 8.3) to prepare 0.1 PEU/ml of FXa solution. Separately from this, a 4 mM solution of S-2222 was prepared by dissolving it in distilled water and the solution was further diluted with the 0.1% BSA/150 mM NaCl/5 mM CaCl2 /50 mM Tris-HCl buffer (pH 8.3) to obtain a 2 mM solution of S-2222.
Next, 25 μl of the test sample or control solution was mixed with 100 μl of the 0.1% BSA/150 mM NaCl/5 mM CaCl2 /50 mM Tris-HCl buffer (pH 8.3) and 25 μl of the FXa solution. After incubating statically at 37° C. for 10 minutes, 100 μl of the S-2222 solution was added to start the reaction. The reaction was carried out at 37° C. for 30 minutes and then stopped by adding 50 μl of 50% acetic acid solution to the reaction mixture. Thereafter, absorbance at a wavelength of 405 nm was measured using a spectrophotometer. In this instance, in order to eliminate absorbancy of various contents in the reaction mixture other than the reaction product, a blank solution was prepared by mixing 25 μl of the FXa solution with 50 μl of 50% acetic acid and then with 25 μl of each test sample or the control solution, 100 μl of the 0.1% BSA/150 mM NaCl/5 mM CaCl2 /50 mM Tris-HCl buffer (pH 8.3) and with 100 μl of the S-2222 solution.
The results are shown in FIG. 45 to FIG. 53 and FIG. 66. In these figures, polypeptide concentration in the reaction solution was expressed as its bovine trypsin-inhibiting activity. Also, residual human FXa activity was expressed by percentage based on the absorbance of a control reaction mixture in which 25 μl of the 0.1% BSA/150 mM NaCl/5 mM CaCl2 /50 mM Tris-HCl buffer (pH 8.3) was used instead of the test sample.

T1 sequence (P00742 235-488 limits assumed): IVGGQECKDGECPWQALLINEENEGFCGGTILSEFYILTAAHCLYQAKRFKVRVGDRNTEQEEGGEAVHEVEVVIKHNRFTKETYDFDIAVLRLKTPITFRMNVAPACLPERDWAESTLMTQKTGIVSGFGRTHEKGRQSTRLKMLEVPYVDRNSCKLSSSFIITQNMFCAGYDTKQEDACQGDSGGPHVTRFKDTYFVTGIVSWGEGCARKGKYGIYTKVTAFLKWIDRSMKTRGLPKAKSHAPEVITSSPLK
T1 sequence (P00742 41-179 partner limits assumed): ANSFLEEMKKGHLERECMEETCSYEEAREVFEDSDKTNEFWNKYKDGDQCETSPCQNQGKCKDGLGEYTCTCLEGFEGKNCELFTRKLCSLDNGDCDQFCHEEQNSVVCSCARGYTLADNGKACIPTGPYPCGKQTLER

Row | Molecule | FXa-inhibiting activity, times higher than that of polypeptide AN68
1 | R11Q/Q19K/Y46D: formula 1 sequence with Gln for position 7 Arg, Lys for position 15 Gln, Asp for position 42 Tyr; SEQ. I.D. NO. 37 (protein) AACNLPIVQGPCRAFIKLWAFDAVKGKCVLFPYGGCQGNGNKFDSEKECREYCGVPGDGDEELLRFSN | about twenty
2 | R11D/Q19K/Y46D: formula 1 sequence with Asp for position 7 Arg, Lys for position 15 Gln, Asp for position 42 Tyr; SEQ. I.D. NO. 38 (protein) AACNLPIVDGPCRAFIKLWAFDAVKGKCVLFPYGGCQGNGNKFDSEKECREYCGVPGDGDEELLRFSN | about 5 times
3 | R11A/Q19K/Y46D: formula 1 sequence with Ala for position 7 Arg, Lys for position 15 Gln, Asp for position 42 Tyr; SEQ. I.D. NO. 43 (protein) AACNLPIVAGPCRAFIKLWAFDAVKGKCVLFPYGGCQGNGNKFDSEKECREYCGVPGDGDEELLRFSN | about 9 times
4 | R11E/Q19K/Y46E: formula 1 sequence with Glu for position 7 Arg, Lys for position 15 Gln, Glu for position 42 Tyr; SEQ. I.D. NO. 40 (protein) AACNLPIVEGPCRAFIKLWAFDAVKGKCVLFPYGGCQGNGNKFESEKECREYCGVPGDGDEELLRFSN | about 13 times
5 | R11L/Q19K/Y46D: formula 1 sequence with Leu for position 7 Arg, Lys for position 15 Gln, Asp for position 42 Tyr; SEQ. I.D. NO. 39 (protein) AACNLPIVLGPCRAFIKLWAFDAVKGKCVLFPYGGCQGNGNKFDSEKECREYCGVPGDGDEELLRFSN | about 16 times
6 | R11S/Q19K/Y46D: formula 1 sequence with Ser for position 7 Arg, Lys for position 15 Gln, Asp for position 42 Tyr; SEQ. I.D. NO. 42 (protein) AACNLPIVSGPCRAFIKLWAFDAVKGKCVLFPYGGCQGNGNKFDSEKECREYCGVPGDGDEELLRFSN | about 8 times
7 | R11N/Q19K/Y46D: formula 1 sequence with Asn for position 7 Arg, Lys for position 15 Gln, Asp for position 42 Tyr; SEQ. I.D. NO. 41 (protein) AACNLPIVNGPCRAFIKLWAFDAVKGKCVLFPYGGCQGNGNKFDSEKECREYCGVPGDGDEELLRFSN | about 10 times
